Experimental data as given in publication doi:10.1101/2023.09.10.557050 (bioRxiv, 2023).
Read-outs that look alike come from different tables or passages of the source.

Legend:
Assay in all cases: cryo-EM structure
[1] = target: T1, EcNhaA WT-like triple mutant (A109T, Q277G, L296M) (E. coli), P13738; details: remark: other sources report otherwise
T1 chain: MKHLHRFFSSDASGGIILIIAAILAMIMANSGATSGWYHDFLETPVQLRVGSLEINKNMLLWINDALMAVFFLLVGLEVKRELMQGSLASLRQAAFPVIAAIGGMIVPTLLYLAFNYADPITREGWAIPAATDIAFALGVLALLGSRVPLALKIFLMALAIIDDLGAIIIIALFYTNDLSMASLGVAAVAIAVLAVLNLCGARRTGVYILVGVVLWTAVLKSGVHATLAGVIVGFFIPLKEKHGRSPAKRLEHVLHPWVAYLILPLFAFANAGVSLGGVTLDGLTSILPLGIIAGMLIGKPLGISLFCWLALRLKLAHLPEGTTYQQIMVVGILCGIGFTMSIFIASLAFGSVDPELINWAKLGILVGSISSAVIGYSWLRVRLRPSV

cryo-EM structure [2] = target: the molecule itself
cryo-EM structure [3] = target: the molecule itself; remark: listed apart in the source

B1: EcNhaA WT-like triple mutant (A109T, Q277G, L296M), P13738 1-388 (natural protein)
chain: MKHLHRFFSSDASGGIILIIAAILAMIMANSGATSGWYHDFLETPVQLRVGSLEINKNMLLWINDALMAVFFLLVGLEVKRELMQGSLASLRQAAFPVIAAIGGMIVPTLLYLAFNYADPITREGWAIPAATDIAFALGVLALLGSRVPLALKIFLMALAIIDDLGAIIIIALFYTNDLSMASLGVAAVAIAVLAVLNLCGARRTGVYILVGVVLWTAVLKSGVHATLAGVIVGFFIPLKEKHGRSPAKRLEHVLHPWVAYLILPLFAFANAGVSLGGVTLDGLTSILPLGIIAGMLIGKPLGISLFCWLALRLKLAHLPEGTTYQQIMVVGILCGIGFTMSIFIASLAFGSVDPELINWAKLGILVGSISSAVIGYSWLRVRLRPSV
- stoichiometry N [1]: 2

B2: horse NHE9* (residues 8 to 575), tag removed (domain or fragment, UniProt F7B113 8-575, looked up)
chain: MSEKDEYQFQHQGAVELLVFNFLLILTILTIWLFKNHRFRFLHETGGAMVYGLIMGLILRYATAPTDIESGTVYDCGKLAFSPSTLLINITDQVYEYKYKREISQHNINPHLGNAILEKMTFDPEIFFNVLLPPIIFHAGYSLKKRHFFQNLGSILTYAFLGTAISCIVIGLIMYGFVKAMVYAGQLKNGDFHFTDCLFFGSLMSATDPVTVLAIFHELHVDPDLYTLLFGESVLNDAVAIVLTYSISIYSPKENPNAFDAAAFFQSVGNFLGIFAGSFAMGSAYAVVTALLTKFTKLCEFPMLETGLFFLLSWSAFLSAEAAGLTGIVAVLFCGVTQAHYTYNNLSLDSKMRTKQLFEFMNFLAENVIFCYMGLALFTFQNHIFNALFILGAFLAIFVARACNIYPLSFLLNLGRKHKIPWNFQHMMMFSGLRGAIAFALAIRDTESQPKQMMFSTTLLLVFFTVWVFGGGTTPMLTWLQIRVGVDLDEDLKERPSSHQEANNLEKSTTKTESAWLFRMWYGFDHKYLKPILTHSGPPLTTTLPEWCGPISRLLTSPQAYGEQLKED
- stoichiometry N (cryo-EM structure [2]): 2

B3: horse NHE9*CC (L139C-I444C double mutant), tag removed (domain or fragment, UniProt F7B113 8-575, looked up)
chain: MSEKDEYQFQHQGAVELLVFNFLLILTILTIWLFKNHRFRFLHETGGAMVYGLIMGLILRYATAPTDIESGTVYDCGKLAFSPSTLLINITDQVYEYKYKREISQHNINPHLGNAILEKMTFDPEIFFNVLCPPIIFHAGYSLKKRHFFQNLGSILTYAFLGTAISCIVIGLIMYGFVKAMVYAGQLKNGDFHFTDCLFFGSLMSATDPVTVLAIFHELHVDPDLYTLLFGESVLNDAVAIVLTYSISIYSPKENPNAFDAAAFFQSVGNFLGIFAGSFAMGSAYAVVTALLTKFTKLCEFPMLETGLFFLLSWSAFLSAEAAGLTGIVAVLFCGVTQAHYTYNNLSLDSKMRTKQLFEFMNFLAENVIFCYMGLALFTFQNHIFNALFILGAFLAIFVARACNIYPLSFLLNLGRKHKIPWNFQHMMMFSGLRGACAFALAIRDTESQPKQMMFSTTLLLVFFTVWVFGGGTTPMLTWLQIRVGVDLDEDLKERPSSHQEANNLEKSTTKTESAWLFRMWYGFDHKYLKPILTHSGPPLTTTLPEWCGPISRLLTSPQAYGEQLKED
- stoichiometry N (cryo-EM structure [3]): 2
